Laboratory results: publication PMC1747184 (Nucleic Acids Research, 2006)

Target: MutSα (MSH2–MSH6) (human (endogenous in HCT-116), UniProt P43246;P52701)
Experiment: pull-down

Sequence of MutSα (MSH2–MSH6) (P43246 whole entry, chain 1 of 2): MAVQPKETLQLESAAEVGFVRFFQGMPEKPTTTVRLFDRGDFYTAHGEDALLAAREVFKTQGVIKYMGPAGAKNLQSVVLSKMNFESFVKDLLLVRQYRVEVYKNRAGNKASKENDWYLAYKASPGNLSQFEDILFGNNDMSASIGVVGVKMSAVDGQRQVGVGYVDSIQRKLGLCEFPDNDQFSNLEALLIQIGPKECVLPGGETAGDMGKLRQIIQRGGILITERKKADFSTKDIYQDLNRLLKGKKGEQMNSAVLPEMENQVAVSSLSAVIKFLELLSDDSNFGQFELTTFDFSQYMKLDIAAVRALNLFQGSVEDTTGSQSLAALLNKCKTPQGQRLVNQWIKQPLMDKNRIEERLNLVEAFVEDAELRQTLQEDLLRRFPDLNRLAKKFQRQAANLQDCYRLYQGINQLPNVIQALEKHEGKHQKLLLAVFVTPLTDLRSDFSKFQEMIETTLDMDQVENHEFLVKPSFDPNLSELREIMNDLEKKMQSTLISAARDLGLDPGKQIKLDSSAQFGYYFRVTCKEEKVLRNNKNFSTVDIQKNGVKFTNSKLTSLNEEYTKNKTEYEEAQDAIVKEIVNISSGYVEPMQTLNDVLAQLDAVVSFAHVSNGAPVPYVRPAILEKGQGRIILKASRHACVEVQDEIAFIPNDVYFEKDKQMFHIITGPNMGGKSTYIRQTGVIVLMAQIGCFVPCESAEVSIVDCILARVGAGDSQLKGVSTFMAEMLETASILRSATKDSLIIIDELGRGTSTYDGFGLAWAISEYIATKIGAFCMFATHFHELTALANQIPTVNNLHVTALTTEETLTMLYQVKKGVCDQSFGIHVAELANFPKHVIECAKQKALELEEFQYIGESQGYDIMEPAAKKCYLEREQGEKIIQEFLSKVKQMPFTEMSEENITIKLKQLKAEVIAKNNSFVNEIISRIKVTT
Sequence of MutSα (MSH2–MSH6) (P52701 whole entry, chain 2 of 2): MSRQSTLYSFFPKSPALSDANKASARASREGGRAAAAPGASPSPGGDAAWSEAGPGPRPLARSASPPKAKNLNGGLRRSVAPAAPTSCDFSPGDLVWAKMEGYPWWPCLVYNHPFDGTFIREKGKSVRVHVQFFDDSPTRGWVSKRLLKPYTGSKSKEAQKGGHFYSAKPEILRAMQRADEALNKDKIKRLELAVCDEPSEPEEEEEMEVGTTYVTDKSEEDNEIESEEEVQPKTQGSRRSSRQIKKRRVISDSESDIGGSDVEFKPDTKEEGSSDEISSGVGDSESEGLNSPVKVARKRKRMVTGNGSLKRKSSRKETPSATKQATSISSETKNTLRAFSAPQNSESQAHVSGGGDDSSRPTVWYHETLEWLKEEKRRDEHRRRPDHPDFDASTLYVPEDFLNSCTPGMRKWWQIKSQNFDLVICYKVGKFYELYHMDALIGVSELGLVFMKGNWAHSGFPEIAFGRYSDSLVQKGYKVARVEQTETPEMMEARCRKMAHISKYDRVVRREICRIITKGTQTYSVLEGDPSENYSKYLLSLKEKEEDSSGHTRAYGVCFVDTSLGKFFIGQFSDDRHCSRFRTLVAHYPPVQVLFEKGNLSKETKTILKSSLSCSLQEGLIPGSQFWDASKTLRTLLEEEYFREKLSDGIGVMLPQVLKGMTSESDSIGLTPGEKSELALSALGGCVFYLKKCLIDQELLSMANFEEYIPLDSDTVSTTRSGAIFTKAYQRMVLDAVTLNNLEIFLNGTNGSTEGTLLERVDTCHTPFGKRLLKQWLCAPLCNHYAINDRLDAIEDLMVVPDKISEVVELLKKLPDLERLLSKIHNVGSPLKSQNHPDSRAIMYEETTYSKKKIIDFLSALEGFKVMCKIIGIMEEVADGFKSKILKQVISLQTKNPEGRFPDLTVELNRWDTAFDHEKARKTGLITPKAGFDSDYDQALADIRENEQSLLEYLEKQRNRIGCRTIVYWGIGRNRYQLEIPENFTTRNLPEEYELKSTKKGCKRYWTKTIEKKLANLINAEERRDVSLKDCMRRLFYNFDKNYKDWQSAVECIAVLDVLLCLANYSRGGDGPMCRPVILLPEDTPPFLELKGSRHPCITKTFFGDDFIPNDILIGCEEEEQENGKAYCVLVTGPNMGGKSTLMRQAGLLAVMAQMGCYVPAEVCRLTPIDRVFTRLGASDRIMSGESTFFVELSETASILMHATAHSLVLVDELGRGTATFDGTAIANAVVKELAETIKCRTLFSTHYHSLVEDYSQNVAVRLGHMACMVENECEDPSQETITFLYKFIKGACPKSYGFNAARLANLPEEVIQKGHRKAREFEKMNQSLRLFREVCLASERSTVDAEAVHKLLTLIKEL

fold decrease of binding against wild-type MutLα: ~5 fold
B1: MutLα^(MLH1 A128P) (complex)
chain 1: MSFVAGVIRRLDETVVNRIAAGEVIQRPANAIKEMIENCLDAKSTSIQVIVKEGGLKLIQIQDNGTGIRKEDLDIVCERFTTSKLQSFEDLASISTYGFRGEALASISHVAHVTITTKTADGKCAYRPSYSDGKLKAPPKPCAGNQGTQITVEDLFYNIATRRKALKNPSEEYGKILEVVGRYSVHNAGISFSVKKQGETVADVRTLPNASTVDNIRSIFGNAVSRELIEIGCEDKTLAFKMNGYISNANYSVKKCIFLLFINHRLVESTSLRKAIETVYAAYLPKNTHPFLYLSLEISPQNVDVNVHPTKHEVHFLHEESILERVQQHIESKLLGSNSSRMYFTQTLLPGLAGPSGEMVKSTTSLTSSSTSGSSDKVYAHQMVRTDSREQKLDAFLQPLSKPLSSQPQAIVTEDKTDISSGRARQQDEEMLELPAPAEVAAKNQSLEGDTTKGTSEMSEKRGPTSSNPRKRHREDSDVEMVEDDSRKEMTAACTPRRRIINLTSVLSLQEEINEQGHEVLREMLHNHSFVGCVNPQWALAQHQTKLYLLNTTKLSEELFYQILIYDFANFGVLRLSEPAPLFDLAMLALDSPESGWTEEDGPKEGLAEYIVEFLKKKAEMLADYFSLEIDEEGNLIGLPLLIDNYVPPLEGLPIFILRLATEVNWDEEKECFESLSKECAMFYSIRKQYISEESTLSGQQSEVPGSIPNSWKWTVEHIVYKALRSHILPPKHFTEDGNILQLANLPDLYKVFERC
chain 2: MERAESSSTEPAKAIKPIDRKSVHQICSGQVVLSLSTAVKELVENSLDAGATNIDLKLKDYGVDLIEVSDNGCGVEEENFEGLTLKHHTSKIQEFADLTQVETFGFRGEALSSLCALSDVTISTCHASAKVGTRLMFDHNGKIIQKTPYPRPRGTTVSVQQLFSTLPVRHKEFQRNIKKEYAKMVQVLHAYCIISAGIRVSCTNQLGQGKRQPVVCTGGSPSIKENIGSVFGQKQLQSLIPFVQLPPSDSVCEEYGLSCSDALHNLFYISGFISQCTHGVGRSSTDRQFFFINRRPCDPAKVCRLVNEVYHMYNRHQYPFVVLNISVDSECVDINVTPDKRQILLQEEKLLLAVLKTSLIGMFDSDVNKLNVSQQPLLDVEGNLIKMHAADLEKPMVEKQDQSPSLRTGEEKKDVSISRLREAFSLRHTTENKPHSPKTPEPRRSPLGQKRGMLSSSTSGAISDKGVLRPQKEAVSSSHGPSDPTDRAEVEKDSGHGSTSVDSEGFSIPDTGSHCSSEYAASSPGDRGSQEHVDSQEKAPKTDDSFSDVDCHSNQEDTGCKFRVLPQPTNLATPNTKRFKKEEILSSSDICQKLVNTQDMSASQVDVAVKINKKVVPLDFSMSSLAKRIKQLHHEAQQSEGEQNYRKFRAKICPGENQAAEDELRKEISKTMFAEMEIIGQFNLGFIITKLNEDIFIVDQHATDEKYNFEMLQQHTVLQGQRLIAPQTLNLTAVNEAVLIENLEIFRKNGFDFVIDENAPVTERAKLISLPTSKNWTFGPQDVDELIFMLSDSPGVMCRPSRVKQMFASRACRKSVMIGTALNTSEMKKLITHMGEMDHPWNCPHGRPTMRHIANLGVISQN
